T1: D1 domain of human IL-2Rγ extracellular domain expressed with a C-terminal myc-myc-hexahistidine tag (human)
T1 construct: also called human IL2Rγ domain 1
T1 chain: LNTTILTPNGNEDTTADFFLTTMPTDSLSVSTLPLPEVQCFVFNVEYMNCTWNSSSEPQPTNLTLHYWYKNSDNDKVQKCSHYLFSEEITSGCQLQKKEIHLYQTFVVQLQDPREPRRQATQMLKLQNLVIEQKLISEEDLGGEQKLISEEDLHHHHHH

T2: D2 domain of human IL2Rγ extracellular domain expressed with a C-terminal myc-myc-hexahistidine tag (human)
T2 construct: also called human IL2Rγ domain 2
T2 chain: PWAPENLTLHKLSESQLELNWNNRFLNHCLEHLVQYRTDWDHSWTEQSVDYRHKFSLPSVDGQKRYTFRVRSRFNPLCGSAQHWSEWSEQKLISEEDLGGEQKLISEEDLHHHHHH

T3: mouse IL-2Rγ endogenously expressed on MC/9 cells (mouse, UniProt P34902 23-369)
T3 construct: whole, on cells
T3 sequence (looked up): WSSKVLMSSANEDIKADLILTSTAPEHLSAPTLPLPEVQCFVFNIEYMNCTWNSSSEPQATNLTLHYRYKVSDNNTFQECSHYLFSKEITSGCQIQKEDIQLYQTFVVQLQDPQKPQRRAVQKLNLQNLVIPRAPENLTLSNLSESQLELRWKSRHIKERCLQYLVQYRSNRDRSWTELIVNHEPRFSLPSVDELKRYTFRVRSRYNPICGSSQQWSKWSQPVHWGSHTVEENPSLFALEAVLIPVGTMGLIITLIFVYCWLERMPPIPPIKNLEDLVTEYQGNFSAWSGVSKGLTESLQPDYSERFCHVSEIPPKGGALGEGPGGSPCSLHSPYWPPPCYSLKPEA

T4: human IL-2Rγ endogenously expressed on NK-92 and Jurkat cells (human, UniProt P31785 23-369)
T4 construct: whole, on cells; on cells it stands with the other receptor subunits of the cell line; also called IL-2Rg; CD132
T4 sequence (looked up): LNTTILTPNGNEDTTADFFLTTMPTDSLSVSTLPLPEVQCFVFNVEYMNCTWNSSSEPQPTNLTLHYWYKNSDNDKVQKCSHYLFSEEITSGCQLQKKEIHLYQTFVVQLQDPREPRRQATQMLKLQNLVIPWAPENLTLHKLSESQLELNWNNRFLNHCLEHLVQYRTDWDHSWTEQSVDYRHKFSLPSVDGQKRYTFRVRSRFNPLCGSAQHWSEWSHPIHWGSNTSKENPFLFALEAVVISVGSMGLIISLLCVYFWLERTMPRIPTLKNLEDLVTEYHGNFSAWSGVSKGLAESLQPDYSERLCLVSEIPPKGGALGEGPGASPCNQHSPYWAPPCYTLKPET

B1: H4H12858P (antibody, human IgG4 S228P, kappa, V domains shown)
VH: EVQLVESGGDLVQPGGSLRLSCTASGFIFRNYAMNWVRQAPGKGLEWLSGILGSNDNTYYVDSVKGRFTISRDNSRNTLYLQMNSLRAEDSAVYYCAKGDAGGFDYWGQGTLVTVSS
VL: DVVMTQSPLSLPVILGQPASISCRSSQSLVSSDGNTYLNWFQQRPGQSPRRLIYKVSNRDSGVPDRFSGSGSGTDFTLKISRVEAEDVGAYYCMQGSYWPPTFGQGTKLEIKR
notes: human IgG4; also called REGN9433
B2: H4H13538P (antibody, human IgG4 S228P, kappa, V domains shown)
VH: EVQLVESGGGLVQPGGSLGLSCAASGFTFSNYAMSWVRQAPGKGLEWVSAVSGGGGGTYYADSVKGRFTISRDNSKNTVLLQMNSLRAEDTAVYYCARGRTGGLDYWGPGTLVTVSS
VL: B1 VL with L15F, S31D, F41L, K55E, K79T, A90I, S97T, Y98R, Q105G, L109V
notes: human IgG4
B3: H4H12924P2 (antibody, human IgG4 S228P, kappa, V domains shown)
VH: EVQLVESGGGLVQPGRSLRLSCAASGFTLEDYAMHWVRQAPGKGLEWVSGISWNRGSTGYADSVKGRFTISRDNAKNSLYLQMTSLRAEDTALYYCAKGFYSMDVWGQGTTVTVSS
VL: not shown
notes: human IgG4
B4: H4H12899P (antibody, human IgG4 S228P, kappa, V domains shown)
VH: QVQLVESGGDLVKPGGSLRLSCATSGFTFSDFYMTWIRQAPGKGLEWISYISNSGSIVKYADSVKGRFTISRDNAKNSLYLQMNSLRAEDTAIYYCARFYGDRWGQGTLVTVSS
VL: DIQLTQSPSFLSASVGDRVTITCWASQGISTFLAWYQQKPGKAPKLLIYAASTLQSGVPSRFSGSGSGTDFTLTISSLQPEDFATYHCQQLNNYPWTFGQGTKVEIKR
notes: human IgG4
B5: H4H12900P (antibody, human IgG4 S228P, kappa, V domains shown)
VH: QVQLVESGGGLVKPGGSLRLSCEASGFTFNDFYMTWIRQAPGKGLEWIAYISKSGDKMRYADSVKGRFSTSRDNAKNSLSLQMNSLRAEDTAVYYCARFYGDIWGQGTLVTVSS
VL: B4 VL with G28D, T31S, A34V, K45N, T53A, D70E, T85S, H87Y, Q89E
notes: human IgG4
B6: H4H12908P (antibody, human IgG4 S228P, kappa, V domains shown)
VH: EVQLVESGGRLVQPGGSLRLSCEASGFTFSNYGMTWVRQAPGKGLEWVSVISGSDNRKYYAESVKGRFTISRDNSKNTLYLQMNSLRAEDTAVYYCAKLGYSRSSKDFYYGMDVWGQGTTVTVSS
VL: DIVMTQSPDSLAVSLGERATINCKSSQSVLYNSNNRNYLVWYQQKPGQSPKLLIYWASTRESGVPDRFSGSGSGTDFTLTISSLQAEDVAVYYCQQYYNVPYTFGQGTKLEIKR
notes: human IgG4
B7: H4H12926P2 (antibody, human IgG4 S228P, kappa, V domains shown)
VH: QVQLQQSGPGLVKPSQTLSLTCAISGDSVSSNIAAWNWIRLSPSRGLEWLGRTFFRSTWFYDYSLSVKGRITINPDTSKNQFSLHLNSVTPEDAAVYYCARTGRRWSLDYWGQGTLVTVSS
VL: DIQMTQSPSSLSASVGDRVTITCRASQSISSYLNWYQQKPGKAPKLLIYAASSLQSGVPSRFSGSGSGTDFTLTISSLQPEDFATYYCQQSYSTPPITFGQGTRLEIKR
notes: fully human anti-IL2Rg antibody, human IgG4
B8: H4H12913P2 (antibody, human IgG4 S228P, kappa, V domains shown)
VH: EVQLVESGGGVVRPGGSLRLSCAASGFTFDDYGMSWVRQAPGKGLEWISSINRNGGSADYADSVKGRFTISRDNAKNSLFLQMSSLRAEDTALYHCASGEFRFDYWGQGTLVTVSS
VL: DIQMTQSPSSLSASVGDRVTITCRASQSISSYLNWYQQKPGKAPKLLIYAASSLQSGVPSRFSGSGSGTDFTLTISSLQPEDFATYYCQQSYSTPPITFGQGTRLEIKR
notes: as for B7
B9: H4H12927P2 (antibody, human IgG4 S228P, kappa, V domains shown)
VH: EVQLVESGGGVVRPGGSLRLSCATSGFTFDDYGMSWVRQVPGKGLEWVSSVNRNGGTTDYADSVKGRFTISRDNAKRSLFLQMNSLRAEDTALYHCATGELFFDYWGQGTLVTVSS
VL: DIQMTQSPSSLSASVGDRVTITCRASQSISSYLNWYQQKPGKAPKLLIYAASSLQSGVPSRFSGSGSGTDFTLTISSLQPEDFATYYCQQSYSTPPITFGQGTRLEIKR
notes: as for B7
B10: H4H12924P2 (antibody, human IgG4 S228P, kappa, V domains shown)
VH: B3 VH
VL: not shown
notes: as for B7
B11: H4H12922P2 (antibody, human IgG4 S228P, kappa, V domains shown)
VH: QVQLVESGGGVVKPGGSLRLSCAASGFTFSNSGIHWVRQAPGKGLEWVALISYAGSNKYYADSVKGRFTISRDNSKNTLSLQMNSLRAEDTAVYYCAKEVWTGTYDSFDMWGRGTMVTVSS
VL: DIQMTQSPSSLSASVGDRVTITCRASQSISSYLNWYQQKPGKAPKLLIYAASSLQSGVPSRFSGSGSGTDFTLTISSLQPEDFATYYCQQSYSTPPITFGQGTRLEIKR
notes: fully human anti-IL2Rg antibody, human IgG4; also called REGN7256

Where a chain is given by its changes, count along the chain named.

The first experiment concerns the target T1, D1 domain of human IL-2Rγ extracellular …. Put plainly: SPR, mAb captured on anti-hFc, 25 C. How it is done: (§1) Equilibrium dissociation constants (KD values) for IL-2Rγ binding to purified anti-IL2Rγ monoclonal antibodies were determined using a Biacore 4000 instrument equipped with a real-time surface plasmon resonance biosensor. All binding studies were performed in 10 mM HEPES, 150 mM NaCl, 3 mM EDTA, and 0.05% v/v Surfactant Tween-20, pH 7.4 (HBS-ET) running buffer at 25° C. and 37° C. The Biacore sensor surface was first derivatized by amine coupling with a monoclonal mouse anti-human Fc antibody (GE, # BR-1008-39) to capture anti-IL2Rγ monoclonal antibodies.
(§2) The dissociation of monoclonal antibody bound IL2Rγ reagents were monitored for 8-10 minutes in HBS-ET running buffer. Kinetic association (kₐ) and dissociation (kd) rate constants were determined by fitting the real-time sensorgrams to a 1:1 binding model using Scrubber 2.0c curve fitting software. Binding dissociation equilibrium constants (KD) and dissociative half-lives (t_{1/2}) were calculated from the kinetic rate constants as: […]
In general terms: SPR reads the build-up and loss of mass on a sensor chip optically.
For B1, the “100 nM Ag Bound” value was found to be 1 RU.

On to B2, for which the “100 nM Ag Bound” value was 2 RU and the binding result is “no binding (tested: 100 nM)”.

Regarding B3, the “100 nM Ag Bound” value worked out at 1 RU.

Take B4: the “100 nM Ag Bound” value was 0 RU and the binding result is reported as “no binding (tested: 100 nM)”.

In the case of B5, the “100 nM Ag Bound” value turned out to be 0 RU and the binding result was “no binding (tested: 100 nM)”.

Consider B6, for which the “100 nM Ag Bound” value amounted to 1 RU and the binding result was “no binding (tested: 100 nM)”.

The next experiment has the same target. Description: SPR, mAb captured on anti-hFc, 37 C. How it is done: as §1, §2
Consider B1, for which the “100 nM Ag Bound” value turned out to be 1 RU and the binding result is reported as “no binding (tested: 100 nM)”.

Take B2: the “100 nM Ag Bound” value was determined as 2 RU.

Take B3: the “100 nM Ag Bound” value was -1 RU.

For the molecule B4, the “100 nM Ag Bound” value is 1 RU.

Regarding B5, the “100 nM Ag Bound” value came out at 2 RU.

For the molecule B6, the “100 nM Ag Bound” value turned out to be 0 RU.

The target in the next experiment is T2, D2 domain of human IL2Rγ extracellular …. Description: SPR, mAb captured on anti-hFc, 25 C. How it is done: as §1
Take B1: the “100 nM Ag Bound” value was 0 RU.

On to B2, for which the “100 nM Ag Bound” value worked out at 6 RU and the binding result is on record as “no binding (tested: 100 nM)”.

For the molecule B3, the “100 nM Ag Bound” value turned out to be 1 RU and the binding result is on record as “no binding (tested: 100 nM)”.

As to B4, the “100 nM Ag Bound” value is -1 RU.

B5: the “100 nM Ag Bound” value is -1 RU.

On to B6, for which the “100 nM Ag Bound” value is -1 RU.

For the next experiment the target is unchanged. Description: SPR, mAb captured on anti-hFc, 37 C. As to the method:
as §1
B1: the “100 nM Ag Bound” value is -1 RU.

As for B2, the “100 nM Ag Bound” value was determined as 6 RU.

As for B3, the “100 nM Ag Bound” value turned out to be 0 RU.

In the case of B4, the “100 nM Ag Bound” value came to 0 RU.

Regarding B5, the “100 nM Ag Bound” value is 1 RU.

As to B6, the “100 nM Ag Bound” value was -1 RU.

In another experiment the target is T3, mouse IL-2Rγ endogenously expressed on …. Put plainly: flow cytometry, 10 ug/ml antibody, MC/9 cells (endogenous mouse IL-2Rg). How it is done:
(§3) For flow cytometry analyses, the cells were pre-incubated with mouse IgG at 100 μg/ml for 15 minutes at room temperature (RT) to block the binding of the antibodies to Fc receptors. […] Cells were washed, fixed using BD CytoFix™ (BD biosciences, #554655) and analyzed on an IQue® (Intellicyt®) Flow Cytometer or Accuri Flow cytometer (BD). […] The results were analyzed using ForeCyt® (IntelliCyt®) software to determine the geometric means of fluorescence (MFI) for viable cells. Binding ratios were calculated by normalizing the MFI of the test sample by the MFI of the unstained sample.
(In general: Flow cytometry measures light scatter and fluorescence of single cells or particles in a stream.)
As to B7, the “Binding Ratio (Sample over unstained MFIs)” value (shortened to “Binding Ratio”) was 1 and the “Raw MFI” value was determined as 175 MFI.

Consider B8, for which the “Binding Ratio” value worked out at 1 and the “Raw MFI” value was determined as 178 MFI.

Turning to B9, the “Binding Ratio” value is 1 and the “Raw MFI” value amounted to 191 MFI.

Regarding B10, the “Binding Ratio” value is 1 and the “Raw MFI” value is 192 MFI.

On to B11, for which the “Binding Ratio” value was determined as 1 and the “Raw MFI” value amounted to 187 MFI.

The target of another experiment is T4, human IL-2Rγ endogenously expressed on …. Put plainly: flow cytometry, 10 ug/ml antibody, NK-92 cells (endogenous human IL-2Rg). How it is done:
as §3
For the molecule B7, the “Binding Ratio” value turned out to be 12 and the “Raw MFI” value was found to be 1850 MFI.

For the molecule B8, the “Binding Ratio” value was 33 and the “Raw MFI” value was found to be 4910 MFI.

On to B9, for which the “Binding Ratio” value was 23 and the “Raw MFI” value is 3490 MFI.

With B10, the “Binding Ratio” value worked out at 2 and the “Raw MFI” value is 231 MFI.

As to B11, the “Binding Ratio” value came out at 84 and the “Raw MFI” value is 12500 MFI.

The next experiment has the same target. Description: flow cytometry, 10 ug/ml antibody, Jurkat cells (endogenous human IL-2Rg). As to the method:
as §3
As to B7, the “Binding Ratio” value came to 2 and the “Raw MFI” value came to 179 MFI.

Turning to B8, the “Binding Ratio” value was 5 and the “Raw MFI” value is 472 MFI.

B9: the “Binding Ratio” value was 4 and the “Raw MFI” value was 315 MFI.

Regarding B10, the “Binding Ratio” value came out at 1 and the “Raw MFI” value was determined as 104 MFI.

B11: the “Binding Ratio” value amounted to 18 and the “Raw MFI” value was 1570 MFI.
